Target: MTs coated with His-mCherry-SEPT9 (10 nM) (bovine (methods) or porcine (Key Resources Table) | human) (UniProt P02550)
Assay: single-molecule TIRF motility assay

KIF5C(1–560)-L12_(KIF1A)-mCit (from UniProt P56536 1-560) (domain or fragment)
fold landing rate against SEPT9-free MTs: 2 fold

Source: paper PMC6396981
